# Results from patent US20220088131A1, “COMPOSITIONS AND METHODS RELATING TO C5L2” (King's College London, priority 2013, published 2022).
# B1: A8delta71-73: Dual C5aR/C5L2 receptor antagonist; C5a variant A8 (C27A, H67F, D69R, M70S, Q71L, G73R, Arg74 deleted) lacking amino acids 71-73 (protein)
# chain: TLQKKIEEIAAKYKHSVVKKCCYDGAAVNNDETCEQRAARISLGPRCIKAFTECCVVASQLRANISFKRS
# Test system: natural regulatory T cells (nTregs)
# Assay: nTreg suppression assay (CFSE dilution)
# Assay type: cell-based, human
# Conditions: nTregs pre-incubated with 7 μM dRA for 8 hr; 1:1 co-culture; FIG. 14
# Description: FIG. 14. C5L2 blockage decreases suppressive activity of natural regulatory T cells (nTregs). nTregs and effector T cells from a freshly drawn human blood sample were separated by cell sorting (CD4^+CD25^hiCD127^lo Treg cells; CD4^+CD25^loCD127^hi effector T cells). nTreg cells were incubated in media containing 7 μM of the C5ar/C5L2 double antagonist (dRA) for 8 hr. Cells were then washed twice to remove the dRA and used for a suppression assay via CSFE dilution measurement in 1:1 co-culture and percentage of suppression calculated. Shown are the mean values of two separately performed experiments.
# nTregs were isolated essentially as described in Yates, J., et al., Int Immunol. (2007) 19(6):785-99. […]
# Principle • Label target cells (T effectors (Teff) usually) with 1 μM CFSE as described • Activate cells with and without Tregs in serial dilution (constant Teff numbers) • CFSE will be evenly split among daughter cells, so peaks on flow will correspond to each round of division (halving of CFSE) • The percentage of dividing precursors can be calculated this way. • In the presence of Tregs, the suppression of division can be estimated. […]
# • 1. […] Acquire FL1 fluorescence of each well on day 4 and calculate suppression of CFSE dilution by Tregs (different methods exist for this) * If there is inadequate CFSE labelling, pulse with ^3H-Thymidine on day 5 instead, as a readout for suppression. […]
molecule,measurement,value
B1,suppressor function of nTregs,markedly reduced
